From article PMC4585930
Each block holds one substance with its values, some of them ahead of it.

Target: GFP-CRN7 WT (UniProt Q55E54)
Experiment: pull-down, western blot band intensity
Settings: read off a plot

UniProt Q55E54, sequence (Q55E54 whole entry): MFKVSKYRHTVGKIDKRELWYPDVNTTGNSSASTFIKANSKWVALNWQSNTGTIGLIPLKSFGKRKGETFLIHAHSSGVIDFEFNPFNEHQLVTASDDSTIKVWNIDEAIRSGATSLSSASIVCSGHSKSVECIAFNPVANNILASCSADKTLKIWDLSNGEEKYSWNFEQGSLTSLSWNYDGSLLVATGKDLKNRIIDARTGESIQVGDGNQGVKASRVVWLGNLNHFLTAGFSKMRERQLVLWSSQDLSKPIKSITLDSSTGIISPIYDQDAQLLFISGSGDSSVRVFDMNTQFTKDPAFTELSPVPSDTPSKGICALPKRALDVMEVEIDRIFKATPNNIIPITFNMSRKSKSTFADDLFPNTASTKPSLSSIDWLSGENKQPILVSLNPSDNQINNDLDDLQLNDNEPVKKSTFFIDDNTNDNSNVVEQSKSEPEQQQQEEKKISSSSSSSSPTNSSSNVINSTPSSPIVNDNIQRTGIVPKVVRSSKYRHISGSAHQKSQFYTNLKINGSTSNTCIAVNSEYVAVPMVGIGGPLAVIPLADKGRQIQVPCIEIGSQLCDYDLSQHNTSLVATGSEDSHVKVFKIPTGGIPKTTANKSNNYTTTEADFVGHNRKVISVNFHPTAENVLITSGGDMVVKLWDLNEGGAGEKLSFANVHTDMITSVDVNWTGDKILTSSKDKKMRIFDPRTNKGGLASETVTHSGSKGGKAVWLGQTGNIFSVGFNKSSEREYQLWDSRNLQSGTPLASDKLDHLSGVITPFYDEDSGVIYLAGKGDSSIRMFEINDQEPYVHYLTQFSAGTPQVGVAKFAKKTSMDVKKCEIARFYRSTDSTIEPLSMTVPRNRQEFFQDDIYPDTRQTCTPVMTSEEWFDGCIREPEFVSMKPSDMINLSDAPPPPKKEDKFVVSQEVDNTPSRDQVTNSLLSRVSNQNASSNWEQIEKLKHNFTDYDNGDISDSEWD

response (arbitrary units) (RacC Mut4 loaded with GDP, parent: est. 61): 54 | response (arbitrary units) (RacC Mut4 loaded with GTPγS, parent: est. 39): 46
Substance: GST-RacC (from UniProt P34149) EE to KK (Mut4)

response (arbitrary units) (RacC Mut1 loaded with GDP, parent: est. 61): 52 | response (arbitrary units) (RacC Mut1 loaded with GTPγS, parent: est. 39): 48
Substance: GST-RacC (from UniProt P34149) ED to KK (Mut1)

response (arbitrary units) (RacC Mut5 loaded with GDP, parent: est. 61): 51 | response (arbitrary units) (RacC Mut5 loaded with GTPγS, parent: est. 39): 49
Substance: GST-RacC (from UniProt P34149) DD to QQ (Mut5)

response (arbitrary units) (RacC Mut3 loaded with GDP, parent: est. 61): 64 | response (arbitrary units) (RacC Mut3 loaded with GTPγS, parent: est. 39): 36
Substance: GST-RacC (from UniProt P34149) Y40K

response (arbitrary units) (RacC Mut2 loaded with GDP, parent: est. 61): 57 | response (arbitrary units) (RacC Mut2 loaded with GTPγS, parent: est. 39): 43
Substance: GST-RacC (from UniProt P34149) D to A (Mut2)
